Read-outs that look alike come from different tables or passages of the source.
What was measured:
[1] = target: T1, minimal NANP3 peptide (Plasmodium falciparum (isolate NF54).)
T1 chain: NANPNANPNANP

[2] = target: T2, full-length PfCSP with 38 NANP repeats (Plasmodium falciparum (isolate NF54)., UniProt P19597); experiment: SEC-MALS; 1210 Fab–PfCSP complex; molar mass from two measurements; details: both partners purified
T2 construct: also called circumsporozoite protein; NF54

[3] = target: T1, minimal NANP3 peptide; experiment: SPR; independent NANP3 SPR affinity measurements of original and mutated antibodies; who was immobilised is not given in the source; details: both partners purified
[4] = target: T3, NANP5 peptide (NANP 5-mer peptide of the PfCSP repeat) (Plasmodium falciparum (isolate NF54).); experiment: ITC; details: both partners purified
T3 construct: source: bought: Alpha Diagnostic International
T3 chain: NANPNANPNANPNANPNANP

[5] = target: T4, NANP3 peptide (minimal NANP repeat peptide) (Plasmodium falciparum (isolate NF54).); experiment: ITC; details: both partners purified
T4 construct: source: bought: PSL GmbH, Heidelberg
T4 chain: NANPNANPNANP

[6] = target: T5, full length PfCSP (NF54 strain) (Plasmodium falciparum (isolate NF54)., UniProt P19597); experiment: BLI; details: both partners purified
T5 construct: also called NF54 PfCSP; circumsporozoite protein; source: HEK293F, transient expression, purified (HisTrap Ni/NTA, SEC)
T5 sequence (P19597 19-374): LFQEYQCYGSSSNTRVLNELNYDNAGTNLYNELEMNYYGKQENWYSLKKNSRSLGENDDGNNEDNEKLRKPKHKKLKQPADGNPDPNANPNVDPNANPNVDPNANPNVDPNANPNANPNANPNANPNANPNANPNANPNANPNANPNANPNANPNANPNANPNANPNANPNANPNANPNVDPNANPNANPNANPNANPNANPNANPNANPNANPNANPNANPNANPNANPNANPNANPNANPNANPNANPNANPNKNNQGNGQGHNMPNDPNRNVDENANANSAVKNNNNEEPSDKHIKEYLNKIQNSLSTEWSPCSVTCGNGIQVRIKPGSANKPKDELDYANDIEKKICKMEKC

T2 sequence (P19597 19-374): as above

B1: 1210_H.N31_Srev (antibody, V domains shown)
VH: QVQLVESGGGVVQPGRSLRLSCAASGFTFSSYGMHWVRQAPGKGLEWVAVIWYDGSKKYYADSVKGRFTISRDNSKNTLYLQMNSLRAEDTAVYYCARVRDSSDYYGDAFDIWGQGTMVTVSS
VL: DIQMTQSPSTLSASVGDRVTITCRASQSISSWLAWYQQKPGKAPKLLIYKASNLESGVPLRFSGSGSGTEFTLTISSLQPDDFATYYCQQYNNYWTFGQGTKVEIK
[1]
  binding result: binds

B2: 1210 antigen-binding fragment (Fab) (Fab, V domains shown)
VH: QVQLVESGGGVVQPGRSLRLSCAASGFTFSNYGMHWVRQAPGKGLEWVAVIWYDGSKKYYADSVKGRFTISRDNSKNTLYLQMNSLRAEDTAVYYCARVRDSSDYYGDAFDIWGQGTMVTVSS
VL: DIQMTQSPSTLSASVGDRVTITCRASQSISSWLAWYQQKPGKAPKLLIYKASNLESGVPLRFSGSGSGTEFTLTISSLQPDDFATYYCQQYNNYWTFGQGTKVEIK
[2]
  stoichiometry N: ~12 Fabs per PfCSP

B3: 1210_H.K56_N^rev (antibody, V domains shown)
VH: QVQLVESGGGVVQPGRSLRLSCAASGFTFSNYGMHWVRQAPGKGLEWVAVIWYDGSNKYYADSVKGRFTISRDNSKNTLYLQMNSLRAEDTAVYYCARVRDSSDYYGDAFDIWGQGTMVTVSS
VL: DIQMTQSPSTLSASVGDRVTITCRASQSISSWLAWYQQKPGKAPKLLIYKASNLESGVPLRFSGSGSGTEFTLTISSLQPDDFATYYCQQYNNYWTFGQGTKVEIK
[3]
  binding result: binds

B4: 1210 Fab (recombinant Fab for ITC) (Fab, V domains shown)
VH: QVQLVESGGGVVQPGRSLRLSCAASGFTFSNYGMHWVRQAPGKGLEWVAVIWYDGSKKYYADSVKGRFTISRDNSKNTLYLQMNSLRAEDTAVYYCARVRDSSDYYGDAFDIWGQGTMVTVSS
VL: DIQMTQSPSTLSASVGDRVTITCRASQSISSWLAWYQQKPGKAPKLLIYKASNLESGVPLRFSGSGSGTEFTLTISSLQPDDFATYYCQQYNNYWTFGQGTKVEIK
notes: source: HEK293F, transiently expressed, purified (KappaSelect, SEC)
[4]
  stoichiometry N: 1.8
[5]
  stoichiometry N: 0.73

B5: 1210 IgG (antibody, V domains shown)
VH: QVQLVESGGGVVQPGRSLRLSCAASGFTFSNYGMHWVRQAPGKGLEWVAVIWYDGSKKYYADSVKGRFTISRDNSKNTLYLQMNSLRAEDTAVYYCARVRDSSDYYGDAFDIWGQGTMVTVSS
VL: DIQMTQSPSTLSASVGDRVTITCRASQSISSWLAWYQQKPGKAPKLLIYKASNLESGVPLRFSGSGSGTEFTLTISSLQPDDFATYYCQQYNNYWTFGQGTKVEIK
notes: IgG1; source: HEK293F, purified (Protein G Sepharose)
[6]
  Kd: < 0.001 nM

B6: 1210_H.K56_Nrev_K.N93_Srev Fab (recombinant Fab for ITC) (Fab, V domains shown)
VH: QVQLVESGGGVVQPGRSLRLSCAASGFTFSNYGMHWVRQAPGKGLEWVAVIWYDGSNKYYADSVKGRFTISRDNSKNTLYLQMNSLRAEDTAVYYCARVRDSSDYYGDAFDIWGQGTMVTVSS
VL: DIQMTQSPSTLSASVGDRVTITCRASQSISSWLAWYQQKPGKAPKLLIYKASNLESGVPLRFSGSGSGTEFTLTISSLQPDDFATYYCQQYNSYWTFGQGTKVEIK
notes: as for B4
[4]
  stoichiometry N: 1.7
[5]
  stoichiometry N: 0.94

B7: 2163_KN (antibody, V domains shown)
VH: QVQLVESGGGVVQPGRSLRLSCAASGFTFSSYGMHWVRQAPGKGLEWVAVIWYDGSKKYYADSVKGRFTISRDNSKNTLYLQMNSLRAEDTAVYYCARVQTTTGGGSCCPFDYWGQGTLVTVSS
VL: DIQMTQSPSSLSASVGDRVTITCRASQSISSWLAWYQQKPGKAPKLLIYKASSLESGVPSRFSGSGSGTEFTLTISSLQPDDFATYYCQQYNNYWTFGQGTKVEIK
[1]
  binding result: binds

B8: 1210 germline antibody Fab (recombinant Fab for ITC) (Fab, V domains shown)
VH: QVQLVESGGGVVQPGRSLRLSCAASGFTFSSYGMHWVRQAPGKGLEWVAVIWYDGSNKYYADSVKGRFTISRDNSKNTLYLQMNSLRAEDTAVYYCARVRDSSDYYGDAFDIWGQGTMVTVSS
VL: not shown
notes: as for B4
[4]
  stoichiometry N: 1.9
[5]
  stoichiometry N: 0.92

B9: 1210_K. N93_S^rev (antibody, V domains shown)
VH: QVQLVESGGGVVQPGRSLRLSCAASGFTFSNYGMHWVRQAPGKGLEWVAVIWYDGSKKYYADSVKGRFTISRDNSKNTLYLQMNSLRAEDTAVYYCARVRDSSDYYGDAFDIWGQGTMVTVSS
VL: DIQMTQSPSTLSASVGDRVTITCRASQSISSWLAWYQQKPGKAPKLLIYKASNLESGVPLRFSGSGSGTEFTLTISSLQPDDFATYYCQQYNSYWTFGQGTKVEIK
[3]
  binding result: binds

B10: 1210 H.D100Ymut_K.N92Ymut Fab (recombinant Fab for ITC) (Fab, V domains shown)
VH: QVQLVESGGGVVQPGRSLRLSCAASGFTFSNYGMHWVRQAPGKGLEWVAVIWYDGSKKYYADSVKGRFTISRDNSKNTLYLQMNSLRAEDTAVYYCARVRDSSYYYGDAFDIWGQGTMVTVSS
VL: DIQMTQSPSTLSASVGDRVTITCRASQSISSWLAWYQQKPGKAPKLLIYKASNLESGVPLRFSGSGSGTEFTLTISSLQPDDFATYYCQQYYNYWTFGQGTKVEIK
notes: as for B4
[4]
  stoichiometry N: 2.1
[5]
  stoichiometry N: 0.88

B11: 1210_YY IgG (1210 H.D100Ymut_K.N92Ymut) (antibody, V domains shown)
VH: QVQLVESGGGVVQPGRSLRLSCAASGFTFSNYGMHWVRQAPGKGLEWVAVIWYDGSKKYYADSVKGRFTISRDNSKNTLYLQMNSLRAEDTAVYYCARVRDSSYYYGDAFDIWGQGTMVTVSS
VL: DIQMTQSPSTLSASVGDRVTITCRASQSISSWLAWYQQKPGKAPKLLIYKASNLESGVPLRFSGSGSGTEFTLTISSLQPDDFATYYCQQYYNYWTFGQGTKVEIK
notes: as for B5
[6]
  Kd: 0.66 nM

B12: 2163 (antibody, V domains shown)
VH: QVQLVESGGGVVQPGRSLRLSCAASGFTFSSYGMHWVRQAPGKGLEWVAVIWYDGSNKYYADSVKGRFTISRDNSKNTLYLQMNSLRAEDTAVYYCARVQTTTGGGSCCPFDYWGQGTLVTVSS
VL: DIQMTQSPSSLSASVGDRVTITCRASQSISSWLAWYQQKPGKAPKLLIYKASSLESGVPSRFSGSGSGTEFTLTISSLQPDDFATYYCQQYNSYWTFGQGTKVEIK
[1]
  binding result: binds

B13: 2163_H.N56_Kmut (antibody, V domains shown)
VH: QVQLVESGGGVVQPGRSLRLSCAASGFTFSSYGMHWVRQAPGKGLEWVAVIWYDGSKKYYADSVKGRFTISRDNSKNTLYLQMNSLRAEDTAVYYCARVQTTTGGGSCCPFDYWGQGTLVTVSS
VL: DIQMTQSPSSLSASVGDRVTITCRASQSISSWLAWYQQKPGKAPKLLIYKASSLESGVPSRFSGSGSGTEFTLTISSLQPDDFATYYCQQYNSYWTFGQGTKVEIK
[1]
  binding result: binds

B14: 2163_H.V50_Imut (antibody, V domains shown)
VH: QVQLVESGGGVVQPGRSLRLSCAASGFTFSSYGMHWVRQAPGKGLEWVAIIWYDGSNKYYADSVKGRFTISRDNSKNTLYLQMNSLRAEDTAVYYCARVQTTTGGGSCCPFDYWGQGTLVTVSS
VL: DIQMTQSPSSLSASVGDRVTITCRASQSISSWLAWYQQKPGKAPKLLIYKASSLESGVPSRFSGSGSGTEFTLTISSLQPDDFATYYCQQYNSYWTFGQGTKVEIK
[1]
  binding result: binds

B15: 2163_H.S31_Nmut (antibody, V domains shown)
VH: QVQLVESGGGVVQPGRSLRLSCAASGFTFSNYGMHWVRQAPGKGLEWVAVIWYDGSNKYYADSVKGRFTISRDNSKNTLYLQMNSLRAEDTAVYYCARVQTTTGGGSCCPFDYWGQGTLVTVSS
VL: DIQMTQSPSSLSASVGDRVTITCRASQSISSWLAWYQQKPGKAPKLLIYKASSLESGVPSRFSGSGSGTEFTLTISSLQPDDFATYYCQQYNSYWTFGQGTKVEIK
[1]
  binding result: binds

Reference: publication PMC6420115 (Science (New York, N.y.), 2018)
